The results in this text go back to paper PMC11984393.

This series has as its target CD8 (T-cell surface marker) (Mus musculus) (UniProt P01731). The series can be described thus: flow cytometry. The note with it: 30 min, live-cell binding, 30 min incubation, buffer, salt, pH and temperature not given in the material.
Chain of UniProt P01731 (P01731 whole entry): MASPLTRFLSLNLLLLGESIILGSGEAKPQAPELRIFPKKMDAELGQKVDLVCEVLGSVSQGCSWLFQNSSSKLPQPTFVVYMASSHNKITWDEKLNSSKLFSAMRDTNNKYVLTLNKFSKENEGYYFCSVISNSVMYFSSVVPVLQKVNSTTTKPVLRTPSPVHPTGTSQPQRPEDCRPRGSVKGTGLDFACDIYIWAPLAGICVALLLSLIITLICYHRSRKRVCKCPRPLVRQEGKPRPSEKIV

Consider “TTTTTAAGTAATGTATTTAAATTGCGAACTACTACTCTCTCTATATATTGCGAACTACTACTCTCTCTATATTAAAGGAAGGATCTCA [Apt-random-FAM]”, for which, under “negative control”, the binding signal (% positive cells) worked out at 0.74.

“TTTTTTTTTTCCAGAGTGACGCAGCAACAGAGGTGTAGAAGTACACGTGAACAAGCTTGAAATTGTCTCCGACAGAGGTGGACACGGTGGCTTTTAGT [Apt-CD8-FAM]”: the binding signal (% positive cells) amounted to 44.4.
